Changes are numbered by the printed parent chain.
Key:
OhrR [1] = target: T1, OhrR (Bacillus subtilis, UniProt O34777); test: OhrR-biothiol binding by MALDI-TOF MS; parameters: species or system B. subtilis; conditions: 300 nM OhrR, 3 μM CHP
T1 construct: made in house
Method: It was confirmed whether it is possible to quantitatively analyze the binding of OhrR and a biothiol using a Matrix-Assisted Laser Desorption Ionization-Time-of-Flight Mass Spectrometry (MALDI-TOF mass spectrometer; MALDI-TOF MS).
1 mL of a 300 nM OhrR-containing buffer (20 mM Tris (pH 8.0), 100 mM NaCl, 5% Glycerol) was mixed with a biothiol (Cys, Hcy or GSH) at each concentration (0, 1, 2, 4, 8, 16, 32, or 64 μM). After 3 μM CHP reacted with each resulting mixture for 2 minutes, 110 μL of 100% TCA was treated to stop the oxidation reaction, and precipitate OhrR. To alkylate the precipitated OhrR, 50 mM iodoacetamide was treated, thereby blocking a cysteine residue of the reduced OhrR. The protein was isolated by sodium dodecyl sulphate-polyacrylamide gel electrophoresis (SDS-PAGE), and then a band corresponding to OhrR was cut out and treated with trypsin (37° C., 12 hours or more), followed by extraction from the gel. 0.5 μL of the extracted peptides were treated with 0.5 μL of a-cyano-4-hydroxycinnamic acid (CHCA) (in 50% acetonitrile, 1% TFA) and dehydrated, and then subjected to MALDI-TOF analysis. The MADI-TOF analysis was performed using a 4700 Proteomics Analyzer instrument (Applied Biosystems).

OhrR [2] = target: T1, OhrR; test: Biochip detection of LMW biothiols (His6-tag OhrR, HisProbe-HRP, TMB absorbance at 450 nm); format: biochemical; conditions: same concentration (final 100 μM biothiol), CHP final 5 μM, 10 minutes
Method: A biochip method is for […] using His6-tag of OhrR, rather than by labeling with fluorescence or a DNAzyme, according to a principle that OhrR is detached from dsDNA attached to the surface of a biochip in the presence of LMW biothiols, thereby reducing a detection signal.
150 μL of 5 mg/mL NeutrAvidin® (Thermo Scientific, USA) diluted with a coating buffer (100 mM Na2HPO4, 50 mM citric acid) was put into each well of a transparent 96-well plate, and reacted at 37° C. for 4 to 5 hours, and then an unbound residue was washed with TBS four times. After washing, 300 μL of a Seablock blocking buffer (Thermo Scientific, USA) was put into each well and shaken at room temperature for 2 hours for blocking (process of coating NeutrAvidin-unbound surface to prevent non-specific reaction), followed by re-washing with TBS four times. […]
(§1) 50 μL of one of CHP (final 5 μM) and a LMW biothiol (final 100 μM for each of L-cysteine, homocysteine and GSH) was simultaneously put into each well using the biochip to which biotin-dsDNA and His6-tag OhrR were fixed to the NeutrAvidin-coated plate, reacted at room temperature for 10 minutes, and washed with TBS for 4 times. […] After 5 minutes, 2M sulfuric acid was added to stop the reaction, and absorbance was measured at 450 nm. […]

FLAG-OhrR [3] = target: T2, FLAG-OhrR (Bacillus subtilis, UniProt O34777 SEQ:1-147); test: pulldown; anti-FLAG beads, 5 uM OhrR, 100 nM DNA, TBS; released by CHP plus cysteine, chemiluminescence readout; conditions: tags: FLAG (DYKDDDDK), expressed in E. coli; chain copies: 2; label: 5' biotin on complementary strand; 5' single-stranded peroxidase DNAzyme plus T9 linker overhang
T2 sequence: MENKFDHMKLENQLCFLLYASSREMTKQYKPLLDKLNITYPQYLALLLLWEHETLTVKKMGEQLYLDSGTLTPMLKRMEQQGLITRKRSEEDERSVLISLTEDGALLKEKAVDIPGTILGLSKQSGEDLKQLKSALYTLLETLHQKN
Method: After unbound dsDNA was removed by spin-down, 160 μL of a buffer (Tris Buffered Saline, TBS)->20 μL of LMW biothiols (by concentration)->20 μL of CHP (500 μM) were sequentially added to each tube, followed by shaking for 5 minutes. Afterward, 200 μL of a supernatant obtained by spin-down was transferred to a 96-well plate, and fluorescence or chemiluminescence was measured. The reducing agent (DTT)-untreated sample may be used for measuring free LMW biothiols, and the reducing agent-treated sample may be used for measuring total LMW biothiols [FIG. 9].
200 μL of the DNAzyme (5′-GG GTT GGG CGG GAT GGG-3′ [SEQ ID NO: 6], synthesized by IDT)-bound OhrR-binding dsDNA was recovered from a supernatant, and 20 μL of a suspension of NeutrAvidin®-coated beads (Thermo Scientific, USA) was added thereto, followed by shaking at room temperature for 30 minutes. Afterward, washing was performed with a TBS (20 mM Tris, 150 mM NaCl, pH 7.4) buffer four times. To induce DNAzyme activity, 180 μL of a TBS buffer was mixed with 20 μL of 1 μM Hemin (Calbiochem, USA) (in TBS) solution to reach the final volume of 200 μL, the beads were precipitated, and then the resulting solution was left at room temperature under a dark condition for 15 minutes or more. […]

[4] = target: T3, OhrR (organic hydroperoxide regulator) (Bacillus subtilis, UniProt O34777 SEQ:1-147); test: FP; 50 nM DNA, 300 nM OhrR; 20 mM Tris pH 8.0, 150 mM NaCl, 5% glycerol; dissociates on CHP plus Cys/Hcy/GSH; conditions: chain copies: 2; label: 6-FAM
T3 sequence: T2 sequence
Method: The binding activity between OhrR and fluorescence (6FAM, 6-carboxyfluorescein)-labeled OhrR-binding DNA was measured every 10 seconds using an LS55 luminescence spectrometer (PerkinElmer) after dissolution in 3 mL of a buffer at a concentration under the experimental conditions. When OhrR binds to DNA, an anisotropy value (Anis) increases. However, when OhrR is dissociated from DNA, an anisotropy value decreases. In each experiment, three representative biothiols such as cysteine (Cys), homocysteine (Hcy) and glutathione (GSH) were treated at various concentrations (0, 1, 2, 4, 8, 16, 32, and 64 μM). While OhrR was bound to DNA in the presence of only a free biothiol, a real-time dissociation rate of OhrR from DNA was measured by treating a type of representative organic hydroperoxide, that is, cumene hydroperoxide (CHP) (treated at 300 sec).

FLAG-OhrR [5] = target: T2, FLAG-OhrR; test: pulldown; anti-FLAG beads, 2 uM OhrR, 100 nM DNA, TBS; released by CHP plus biothiol; conditions: tags: FLAG (DYKDDDDK), expressed in E. coli; chain copies: 2; label: 6-FAM
Method: First, 30 μL of M2 FLAG affinity beads (Sigma, A2220) were added to respective tubes corresponding to the number of samples, and FLAG-tagged OhrR (2 μM) was bound thereto for 1 hour to reach the total volume of 200 μL (when OhrR is bound to the His6 tag, NTA-Beads can also be used). To remove unbound OhrR, after spin-down, a supernatant was removed, fluorophore or DNAzyme-bound OhrR-binding dsDNA (100 nM, SEQ ID NOs: 1 and 2) was bound to the OhrR-bound beads for 30 minutes. […] Afterward, 200 μL of a supernatant obtained by spin-down was transferred to a 96-well plate, and fluorescence or chemiluminescence was measured. […]
OhrR-binding dsDNA was bound with a fluorescent factor FAM, and 200 μL of the final supernatant was transferred to a 96 well plate, followed by fluorescence measurement using a multi plate reader (Variokan, Thermo Scientific). In the fluorescence measurement, a fluorescent signal value at a 525 nm emission wavelength obtained at an excitation wavelength of 480 nm was obtained, and a fluorescence value of each well was corrected using a well only containing a buffer without a fluorescent factor as a reference value, followed by comparing these values.

His6-OhrR = target: T4, His6-OhrR (Bacillus subtilis, UniProt O34777 SEQ:1-147); test: plate assay on NeutrAvidin, 5 uM OhrR, TBS, HisProbe-HRP readout; signal reduced by CHP plus biothiol; conditions: tags: His6; chain copies: 2; label: biotin
T4 sequence: T2 sequence
Method: 150 μL of 5 mg/mL NeutrAvidin® (Thermo Scientific, USA) diluted with a coating buffer (100 mM Na₂HPO₄, 50 mM citric acid) was put into each well of a transparent 96-well plate, and reacted at 37° C. for 4 to 5 hours, and then an unbound residue was washed with TBS four times. After washing, 300 μL of a Seablock blocking buffer (Thermo Scientific, USA) was put into each well and shaken at room temperature for 2 hours for blocking (process of coating NeutrAvidin-unbound surface to prevent non-specific reaction), followed by re-washing with TBS four times. 100 μL of a biotin-DNA solution diluted with a TBS buffer to 1 μM was put into each well of the blocking-completed microplate, and reacted at room temperature for 1 hour, followed by washing with TBS four times. […]
as §1

[6] = target: T3, OhrR (organic hydroperoxide regulator); test: BLI; 50 uM OhrR, TBS; binding thickness about 4.3 nm, falls to about 1 nm with CHP plus biothiol; CHP or biothiol alone still binds; conditions: chain copies: 2; label: biotin

Question: Which results are given for `N[C@@H](CS)C(=O)O` [Cys, cysteine]?
Answer: detection signal level among the measured LMW biothiols (OhrR [1]): highest detection signal level; absorbance signal reducing effect compared with homocysteine or GSH (OhrR [2]): higher absorbance signal reducing effect

B1: DNAzyme-linked OhrR operator dsDNA probe (dsDNA)
DNA 1: GGGTTGGGCGGGATGGGTTTTTTTTTTACAATTAAATTGTATACAATTAAATTGTA
DNA 2: TACAATTTAATTGTATACAATTTAATTGTA
Question: Does B1 bind (FLAG-OhrR [3])?
Answer: Result: binds

B2: OhrR operator dsDNA, 6FAM (dsDNA)
DNA 1: B1 DNA 2 with T8A, T23A
DNA 2: B1 DNA 2
Question: Does B2 bind [4]?
Answer: Result: binds

Question: Does B2 bind (FLAG-OhrR [5])?
Answer: Result: binds

B3: OhrR operator dsDNA, biotin (dsDNA)
DNA 1: B1 DNA 2 with T8A, T23A
DNA 2: B1 DNA 2
Question: Which results are given for B3?
Answer: binding result (His6-OhrR): binds; binding result [6]: binds
